Data from patent publication US20210107981A1 (SUTRO BIOPHARMA, published 2021).

B1: 4B10 murine hybridoma IgG (antibody, V domains shown)
VH: EVKLVESGGGLVKPGGSLKLSCAASGFTFSTYGMSWVRQTPEKRLQWVATISGGGSNTYYSDSVKGRFTISRDNAKNNLYLQMSSLRSEDTALYYCARQRDSAWFASWGQGTLVTVSA
VL: not shown
notes: Mouse IgG from hybridoma; also called m4B10
B2: 1E9 murine hybridoma IgG (antibody, V domains shown)
VH: EVKLVESGGGLVSPGGSLKLSCAASGFTFSTFGMSWVRQTPEKRLEWVATISGGGSDTYYPDSVQGRFIISRYNAKNNLYLQMNSLRPEDTALYYCARQGYDVYSWFAYWGQGTLVTVSA
VL: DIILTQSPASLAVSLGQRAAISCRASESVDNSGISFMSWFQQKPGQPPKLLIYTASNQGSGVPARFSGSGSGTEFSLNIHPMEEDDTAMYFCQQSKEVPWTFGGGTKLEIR
notes: Mouse IgG from hybridoma; also called m1E9
B3: 1B10 murine hybridoma IgG (antibody, V domains shown)
VH: DVQLQESGPGLVKPSQSLSLTCTVTGHSITSDYAWNWIRQFPGNKLEWMGYISYSGRTSYNPSLTSRISITRDTSKNQFFLQLNSVTTEDTATYYCARGYALDYWGQGTSVTVSS
VL: QIVLSQSPAILSASPGEKVTMTCRTSSSVNYMHWFQQKPGSSPKPWIYATSKLASGVPARFSGSGSGTSYSLTISRVEAEDAATYFCQQWISDPWTFGGGTKLEIK
notes: Mouse IgG from hybridoma; also called m1B10
B4: 10B4 murine hybridoma IgG (antibody, V domains shown)
VH: QVQLQQSGAELMKPGASVKMSCKTTGYIFSSYWIGWVKQRPGHGLEWIGKIFPGSGSADYNENFKGKATFTVDTSSNTAYMQLSSLTSEDSAVYYCARGYGNYLYFDVWGAGTTVTVSS
VL: NIVMTQTPKFLLVSAGDRITITCKASQSVSDDVAWYQQKPGQSPKLLISYAFKRYIGVPDRFTGSGYGTDFTFTISTVQAEDLAVYFCQQNYNSPYTFGGGTKLELKR
notes: Mouse IgG from hybridoma; also called m10B4
B5: h1E9-5 IgG (antibody)
heavy: not shown
light: MEIVLTQSPATLSLSPGERATLSCRASESVDNSGISFMSWYQQKPGQAPRLLIYTASNQGSGIPARFSGSGSGTDFTLTISSLEPEDFAVYYCQQSKEVPWTFGQGTKVEIKRTVAAPSVFIFPPSDEQLKSGTASVVCLLNNFYPREAKVQWKVDNALQSGNSQESVTEQDSKDSTYSLSSTLTLSKADYEKHKVYACEVTHQGLSSPVTKSFNRGEC
notes: Human IgG1; heavy chain with C-terminal FlagHis tag; made by cell-free expression; also called h1E9-5 human IgG1
B6: h1E9-4 IgG (antibody)
heavy: not shown
light: MDIQLTQSPSFLSASVGDRVTITCRASESVDNSGISFMSWYQQKPGKAPKLLIYTASNQGSGVPSRFSGSGSGTEFTLTISSLQPEDFATYYCQQSKEVPWTFGQGTKVEIKRTVAAPSVFIFPPSDEQLKSGTASVVCLLNNFYPREAKVQWKVDNALQSGNSQESVTEQDSKDSTYSLSSTLTLSKADYEKHKVYACEVTHQGLSSPVTKSFNRGEC
notes: Human IgG1; heavy chain with C-terminal FlagHis tag; made by cell-free expression; also called h1E9-4 human IgG1
B7: h1E9-HC2 × h1E9-LC2 IgG (antibody)
heavy: not shown
light: MDIVLTQSPLSLPVTPGEPASISCRASESVDNSGISFMSWYLQKPGQSPQLLIYTASNQGSGVPDRFSGSGSGTDFTLKISRVEAEDVGVYYCQQSKEVPWTFGQGTKVEIKRTVAAPSVFIFPPSDEQLKSGTASVVCLLNNFYPREAKVQWKVDNALQSGNSQESVTEQDSKDSTYSLSSTLTLSKADYEKHKVYACEVTHQGLSSPVTKSFNRGEC
notes: Humanized IgG; heavy chain with C-terminal FlagHis tag
B8: h1E9-HC3 × h1E9-LC4 IgG (antibody)
heavy: not shown
light: MDIVLTQSPDSLAVSLGERATINCRASESVDNSGISFMSWYQQKPGQPPKLLIYTASNQGSGVPDRFSGSGSGTDFTLTISSLQAEDVAVYYCQQSKEVPWTFGQGTKVEIKRTVAAPSVFIFPPSDEQLKSGTASVVCLLNNFYPREAKVQWKVDNALQSGNSQESVTEQDSKDSTYSLSSTLTLSKADYEKHKVYACEVTHQGLSSPVTKSFNRGEC
notes: as for B7
B9: h1E9-5-IgG-HC-FLAG-HIS × h1E9-LC4 IgG (antibody)
heavy: not shown
light: B8 light
notes: also called h1E9-5 HC × h1E9-LC4
B10: h1E9-HC2 × h1E9-LC4 IgG (antibody)
heavy: not shown
light: B8 light
notes: as for B7
B11: h1E9-HC1 × h1E9-LC4 IgG (antibody)
heavy: not shown
light: B8 light
notes: as for B7

target: T1, Human PD-1 (ACROBiosystems, Inc., Catalog No. PD1-H5221) (human, UniProt Q15116 25-167); test: SPR (Biacore)
T1 construct: Bought recombinant protein; also called huPD1-His; PD-1-his; not shown: His tag of the bought protein (huPD1-His)
T1 sequence (Q15116 25-167 limits assumed): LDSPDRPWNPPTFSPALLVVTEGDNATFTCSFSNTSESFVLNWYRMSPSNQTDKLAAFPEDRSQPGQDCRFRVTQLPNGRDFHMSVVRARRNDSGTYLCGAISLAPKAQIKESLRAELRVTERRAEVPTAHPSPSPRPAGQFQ

Kd | Binder
0.913 nM | B1
9.9 nM | B2
10.4 nM | B3
0.252 nM | B4

target: T2, cynomolgus PD-1 (ACROBiosystems, Inc., Catalog No. PD1-H5254) (cynomolgus, UniProt B0LAJ3 25-167); test: SPR (Biacore)
T2 construct: also called cyno PD-1
T2 sequence (B0LAJ3 entry or part of it limits assumed, form in doubt): as the sequence (Q15116 25-167 limits assumed) above, with D2E, P10A, V19L, T35A, Q75R counted along it

Kd | Binder
0.561 nM | B1
2.54 nM | B2
2.56 nM | B3
0.195 nM | B4

target: T1, Human PD-1 (ACROBiosystems, Inc., …); test: ELISA, binding of human PD-1 (coated)

EC50 | Binder
0.47 nM | B1
0.33 nM | B2
1.71 nM | B3
0.59 nM | B4

target: T1, Human PD-1 (ACROBiosystems, Inc., …); test: SPR (Biacore), IgG as ligand, PD-1-his as sample

Kd | koff | kon | Binder
19.4 nM | 0.000471 s⁻¹ | 24300 M⁻¹ s⁻¹ | B5
12.4 nM | 0.000442 s⁻¹ | 35600 M⁻¹ s⁻¹ | B6

target: T1, Human PD-1 (ACROBiosystems, Inc., …); test: SPR (Biacore), IgG as ligand, PD-1-his as sample; remark: another data set of the same source

Kd | Binder
12.3 nM | B7
9.4 nM | B8
7.31 nM | B9
4.96 nM | B10
6.33 nM | B11

target: T3, human PD-1 expressed on the cell surface (CHO-PD1 cells) (human, UniProt Q15116 25-288); test: FACS cell binding on CHO cells expressing human PD-1
T3 construct: Also used here as the target for native PD-1 on human PBMC / T cells in the functional (IFN-g) assays; also called CHO cell line overexpressing human PD-1; Cell-Surface Human PD-1 antigen
T3 sequence (Q15116 25-288 limits assumed): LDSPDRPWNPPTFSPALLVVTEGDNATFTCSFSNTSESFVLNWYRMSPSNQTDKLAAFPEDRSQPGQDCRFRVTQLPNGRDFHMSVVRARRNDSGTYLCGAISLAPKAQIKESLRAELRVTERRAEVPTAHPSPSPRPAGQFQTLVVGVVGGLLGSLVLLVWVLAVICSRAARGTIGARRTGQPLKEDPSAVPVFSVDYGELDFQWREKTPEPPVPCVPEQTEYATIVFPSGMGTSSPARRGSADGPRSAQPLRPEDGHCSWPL
Method: (§1) A mix of parental CHO cells and CHO-PD1 cells was prepared as follows: Parental CHO cells were washed 2× in PBS then incubated in PBS containing 1 μM CellTrace™ Oregon Green488® (Life Technologies) at 37° C. for 30 minutes. Cells were then washed 2× with RPMI w/10% fetal calf serum (FCS), washed 2× with FACS buffer (PBS w/2% FCS), suspended thoroughly in ice-cold FACS buffer at a final concentration of 2×10⁶ cells/mL and kept on ice. CHO-PD1 cells were similarly washed with FACS buffer and kept on ice at 2×10⁶ cells/mL. Parental CHO cells and CHO-PD1 cells were then mixed to obtain a 1:1 cell suspension and seeded at 100 μL per well on 96 well polypropylene plates. Plates were spun at 1500 rpm for 5 minutes and cell pellets were suspended in 50 μL FACS buffer containing 6-12 point dilutions of anti-PD-1 variants starting from concentrations of −100-200 nM antibody, dispensed using BioMek FX (Beckman Coulter). Cells were then incubated on ice for 1 hr, washed with FACS buffer and incubated for 1 hr on ice with 50 μL FACS buffer containing 2.5 μg/ml R-phycoerythrin-conjugated goat anti-Human IgG (Jackson ImmunoResearch) or AF647-conjugated goat anti-mouse IgG (Life Technologies) dispensed using BioMek FX (Beckman Coulter). Cells were then washed 2× with FACS buffer and fixed for 10 minutes in 200 μL PBS with 2% paraformaldehyde (PFA) prior to fluorescence detection. Samples were acquired using a Becton Dickinson LSRII FACS. Mean Fluorescence Intensity of PD-1 antibody binding was analyzed using FlowJo® software (Tree Star, Inc.).
The affinity of the IgGs for cell-surface expressed human PD-1 were measured according to Example 6, above.

Kd | Binder
11 nM | B7
9 nM | B8
14 nM | B9
4 nM | B10
8 nM | B11

target: T4, cynomolgus PD-1 expressed on CHO cells (cynomolgus, UniProt B0LAJ3 25-288); test: FACS cell binding on CHO cells expressing cynomolgus PD-1
T4 construct: also called Cell-Surface Cynomolgus PD-1 antigen
T4 sequence (B0LAJ3 entry or part of it limits assumed, form in doubt): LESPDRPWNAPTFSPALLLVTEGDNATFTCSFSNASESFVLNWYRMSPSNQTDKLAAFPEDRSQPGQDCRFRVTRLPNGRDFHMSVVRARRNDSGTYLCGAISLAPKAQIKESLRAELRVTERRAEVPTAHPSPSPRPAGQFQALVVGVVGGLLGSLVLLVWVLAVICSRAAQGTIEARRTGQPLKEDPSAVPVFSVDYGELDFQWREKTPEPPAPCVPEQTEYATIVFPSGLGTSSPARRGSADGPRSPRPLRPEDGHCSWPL
Method: as §1
The affinity of the IgGs for cell-surface expressed cynomolgus PD-1 were measured according to Example 6, above.

Kd | Binder
9 nM | B7
5 nM | B8
12 nM | B9
6 nM | B10
11 nM | B11

target: T3, human PD-1 expressed on the cell …; test: FACS cell binding, CHO cell line overexpressing human PD-1
Method: Antibodies with expression levels >250 nM and mouse IgGs from hybridomas were tested in a fluorescence-activated cell sorting (FACS) cell-binding assay. Chinese Hamster Ovary (or CHO) Cells stably expressing the human target molecule PD-1 on the cell surface (CHO-PD1) were used to screen for binding. Parental CHO cells were used as a negative control to determine background-binding levels. Parental CHO cells and CHO-PD1 cells were cultured in RPMI w/10% FCS penicillin/streptomycin (Pen/Strep) and glutamine (or Gln) and split every 3-4 days at 10⁵ cells/mL.
as §1

Kd | Binder
1.39 nM | B1
2.9 nM | B2
3.2 nM | B3
1.34 nM | B4

target: T3, human PD-1 expressed on the cell …; test: cell-based FACS competition on CHO-PD1 cells; competitor rhPDL1-Fc
Method: (§2) CHO-PD1 cells were cultured in RPMI with 10% FCS Pen/Strep and Gln and split every 3-4 days at 10⁵ cells/ml. Cells were washed 2× with FACS buffer (PBS w/2% FCS), […] at a final concentration of 1×10⁶ cells/ml and seeded at […] per well on 96 well polypropylene plates. Plates were spun at 1500 rpm for 5 minutes and cell pellets were suspended in 50 μL FACS buffer containing 8 point 1:3 dilutions (2× concentrated) of anti-PD-1 antibody variants, starting from high concentration of −200 nM. […] Cell were then incubated on ice for 1 hr, washed with FACS buffer and incubated for 1 hr on ice with 50 μl FACS buffer containing 2.5 μg/ml R-phycoerythrin-conjugated anti-human IgG (Jackson ImmunoResearch). Cells were then washed 2× with FACS buffer and fixed for 10 minutes in 200 μl PBS with 2% PFA prior to acquisition. Samples were acquired using a Becton Dickinson LSRII FACS.

IC50 | Binder
1.99 nM | B1
5.86 nM | B2
5.96 nM | B3
2.53 nM | B4

target: T3, human PD-1 expressed on the cell …; test: cell-based FACS competition on CHO-PD1 cells; competitor rhPDL2-Fc
Method: as §2

IC50 | Binder
0.01 nM | B1
0.58 nM | B2
0.56 nM | B3
0.18 nM | B4

target: T1, Human PD-1 (ACROBiosystems, Inc., …); test: competition ELISA on coated PD-1; competitor PD-L1-Fc (ACROBiosystems)
Method: PD-1 (ACROBiosystems, Inc.) was adsorbed on 384-well white Maxisorp® plates (Nunc) at 2 μg/mL in sodium bicarbonate buffer (pH 8.9) and incubated at 30° C. for 1 hour or overnight at 4° C. The plate was washed 3 times with PBS pH 7.4 with 0.05% Tween20 and blocked with 2% bovine serum albumin (BSA) in PBS pH 7.4+0.1% Tween20 for 1 hour at 30° C.
After a 1 hour incubation at 30° C., the plate was washed and incubated with HRP-conjugated anti-mouse Fc (Jackson Laboratories), followed by detection with SuperSignal™ Pico Chemiluminescent Substrate (Thermo Pierce). Luminescence was detected on a SpectraMax® M5 plate reader (Molecular Devices).

IC50 | Binder
1.43 nM | B1
0.89 nM | B2
9.47 nM | B3
1.32 nM | B4
